From paper PMC10411901, “FIRRM cooperates with FIGNL1 to promote RAD51 disassembly during DNA repair” (Science Advances, 2023)

Key:
[1] = target: T1, recombinant full-length FIRRM (human, UniProt Q9NSG2 1-853); assay: co-IP; purified recombinant RAD51, FIRRM and FIGNL1 together; anti-RAD51 14B4 on protein A/G Sepharose; IPB buffer (20 mM KPO4 pH 7.4, 175 mM KCl, 0.5 mM EDTA, 0.5% NP-40, 10% glycerol, 1 mM DTT); Western blot; conditions: both partners purified
T1 construct: full-length codon-optimized human FIRRM from GenScript; Insect cell form: modified pFastBac dual vector with an N-terminal GFP tag removable with TEV protease; also called iFIRRM (form from insect cells); source: purified from bacteria (E. coli BL21RP) or Sf9 insect cells
T1 sequence (looked up): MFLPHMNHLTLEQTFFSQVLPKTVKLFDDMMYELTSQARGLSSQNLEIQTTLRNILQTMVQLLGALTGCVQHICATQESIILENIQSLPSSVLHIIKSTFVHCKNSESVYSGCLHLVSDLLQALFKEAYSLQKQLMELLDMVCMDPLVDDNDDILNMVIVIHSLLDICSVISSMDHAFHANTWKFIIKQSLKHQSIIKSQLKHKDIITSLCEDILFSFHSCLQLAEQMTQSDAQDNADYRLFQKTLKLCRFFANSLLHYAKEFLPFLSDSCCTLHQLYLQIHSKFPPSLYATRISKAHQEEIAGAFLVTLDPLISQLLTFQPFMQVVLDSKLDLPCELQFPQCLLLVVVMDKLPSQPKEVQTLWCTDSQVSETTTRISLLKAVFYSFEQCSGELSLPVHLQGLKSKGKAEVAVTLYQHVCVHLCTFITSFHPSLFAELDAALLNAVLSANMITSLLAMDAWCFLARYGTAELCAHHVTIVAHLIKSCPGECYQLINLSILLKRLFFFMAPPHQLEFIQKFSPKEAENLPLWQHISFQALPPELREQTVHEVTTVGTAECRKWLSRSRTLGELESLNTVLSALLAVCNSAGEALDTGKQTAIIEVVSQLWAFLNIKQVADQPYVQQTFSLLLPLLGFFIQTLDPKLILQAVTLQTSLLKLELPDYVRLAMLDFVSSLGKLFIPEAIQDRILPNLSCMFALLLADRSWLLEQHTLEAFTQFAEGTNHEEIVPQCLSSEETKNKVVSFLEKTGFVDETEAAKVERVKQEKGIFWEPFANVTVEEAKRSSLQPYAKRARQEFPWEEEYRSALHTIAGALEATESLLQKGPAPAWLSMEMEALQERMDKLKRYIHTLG

[2] = target: the molecule itself; assay: cryo-EM two-dimensional class averages; FIGNL1 10 μM in 1× PBS with 2 mM MgCl2 and 1 mM AMP-PNP on graphene oxide lacey carbon grids; 2D classes from 1287 particles; hexamer model from an AlphaFold monomer

B1: recombinant full-length FIGNL1 (natural protein, human, UniProt Q6PIW4 1-674, looked up)
chain: MQTSSSRSVHLSEWQKNYFAITSGICTGPKADAYRAQILRIQYAWANSEISQVCATKLFKKYAEKYSAIIDSDNVESGLNNYAENILTLAGSQQTDSDKWQSGLSINNVFKMSSVQKMMQAGKKFKDSLLEPALASVVIHKEATVFDLPKFSVCGSSQESDSLPNSAHDRDRTQDFPESNRLKLLQNAQPPMVTNTARTCPTFSAPVGESATAKFHVTPLFGNVKKENHSSAKENIGLNVFLSNQSCFPAACENPQRKSFYGSGTIDALSNPILNKACSKTEDNGPKEDSSLPTFKTAKEQLWVDQQKKYHQPQRASGSSYGGVKKSLGASRSRGILGKFVPPIPKQDGGEQNGGMQCKPYGAGPTEPAHPVDERLKNLEPKMIELIMNEIMDHGPPVNWEDIAGVEFAKATIKEIVVWPMLRPDIFTGLRGPPKGILLFGPPGTGKTLIGKCIASQSGATFFSISASSLTSKWVGEGEKMVRALFAVARCQQPAVIFIDEIDSLLSQRGDGEHESSRRIKTEFLVQLDGATTSSEDRILVVGATNRPQEIDEAARRRLVKRLYIPLPEASARKQIVINLMSKEQCCLSEEEIEQIVQQSDAFSGADMTQLCREASLGPIRSLQTADIATITPDQVRPIAYIDFENAFRTVRPSVSPKDLELYENWNKTFGCGK
notes: Insect cell form: modified pFastBac dual vector with an N-terminal GFP tag removable with TEV protease; source: purified from bacteria (E. coli BL21RP) or Sf9 insect cells
B1: binds [1].

B2: FIGNL1 purified from insect cells (natural protein, human, UniProt Q6PIW4 1-674, looked up)
chain: MQTSSSRSVHLSEWQKNYFAITSGICTGPKADAYRAQILRIQYAWANSEISQVCATKLFKKYAEKYSAIIDSDNVESGLNNYAENILTLAGSQQTDSDKWQSGLSINNVFKMSSVQKMMQAGKKFKDSLLEPALASVVIHKEATVFDLPKFSVCGSSQESDSLPNSAHDRDRTQDFPESNRLKLLQNAQPPMVTNTARTCPTFSAPVGESATAKFHVTPLFGNVKKENHSSAKENIGLNVFLSNQSCFPAACENPQRKSFYGSGTIDALSNPILNKACSKTEDNGPKEDSSLPTFKTAKEQLWVDQQKKYHQPQRASGSSYGGVKKSLGASRSRGILGKFVPPIPKQDGGEQNGGMQCKPYGAGPTEPAHPVDERLKNLEPKMIELIMNEIMDHGPPVNWEDIAGVEFAKATIKEIVVWPMLRPDIFTGLRGPPKGILLFGPPGTGKTLIGKCIASQSGATFFSISASSLTSKWVGEGEKMVRALFAVARCQQPAVIFIDEIDSLLSQRGDGEHESSRRIKTEFLVQLDGATTSSEDRILVVGATNRPQEIDEAARRRLVKRLYIPLPEASARKQIVINLMSKEQCCLSEEEIEQIVQQSDAFSGADMTQLCREASLGPIRSLQTADIATITPDQVRPIAYIDFENAFRTVRPSVSPKDLELYENWNKTFGCGK
notes: The GFP tag is removable with tobacco etch virus protease; the results speak of the protein from insect cells; source: Sf9 insect cells (baculovirus), purified (gel filtration)
In the case of B2, the “stoichiometry N” value [2] is reported as 6.
